Test results taken from the DeepSol protein solubility set.

Assay: soluble on expression in E. coli; label from the status in PepcDB or PDB records

Sequence	soluble on expression in E. coli
MAFSAPEPELSVVVPTLNEAETVATLLAALAAQRDVALELLLCDGGSTDGTAALVRGRAGDLPFPVTVTETPPGRGRQMNAGAAAARGATFLFLHADSIIADPLALRRGLDHLAAARRSDKRAAGHFRLRFAGDSPSPLAYRFYERKARLHRPGCTHGDQGLLIPREFFDQVGPFDEGLPILEDVRLAERIAAMGTWVLLPAEIITSARRFETEGLRERQTLNAILMNFAAIGWQQGVEELVAGYRSQDRSGRLRLGPHLARIAGLTAALPRQERLRLWYLTGGYVRGNAWQIPLFLDVRNAWRRGGDDGATPLLSLHDRWFDLLTDNPAGRAAAALMTFLWFRLTLRREMKDWPGILRTPLEHHHHHH	not soluble
MAHHHHHHMSDLRRVESLNADTFRRLNATSVVKSFWHTQLRAATAASRGAKDDSLATANEETPVATRKLRSAASSAEKSAGGLTDSTVYSSSSSSSNSRLSVSATLPGFPSPTETRRRLRAAALSAERHRAEESDEEKPDPVARTLFQNFLLQEYDALDSRPVLTVVLDLDETLVSNRDSGATGAILRPYCLHMLNALRHMQGLEVVLWTASTKETAAPVIRQLSQSGPVFDDVICRNSSWFTEPLHTKDLRLLGRDMSRVIIFDNSTACCKLNPRNAVIVDDFRGVRNTSDAALVNVYYIIERSFNGCCAGVSVLETLVKLAVEKQLCMPEVLHLPESWRHIPLREIAPLKVPPHGIFFRAHSTPLNDSIMQHWTV	soluble
MESIVDKQAVKHFLLQLQDKICQQLEATDGQAQFIEDAWQREPGEKLGGGGRTRVMREGAVFEQGGVNFSHVFGEQMPASATAHRPELAGRRFEAMGVSLVMHPKNPYVPTSHANVRFFIAEKEGEAPIWWFGGGFDLTPFYPFVEDGQHWHQTAKNICAPFGSEIYNEHKAWCDRYFYLPHRNETRGIGGLFFDDLNEWSFEQCFAYMQAVGEGYTQAYVPIVEKRKNTPFTERERQFQLYRRGRYVEFNLVLDRGTLFGLQTGGRTESILMSMPPLARWEYAYQPQAGTPEAKLSEFLVPREW	not soluble
MSLRLNDWQLAFEAYLLGEQAQARAVLQDSLIGGPTLDVETGLAIYHNAYMARLQEVMGSDFPAIRHWLGDAEFQALTQAYIRQCPSRHFSLRWLGQGFAEFILGHLVPEQGAPLAELARLEWAFTLAFDAADAQVLTVAAMAGLDVEQWPQLQLRLAPCVQWLDCRYNSVAQWRAVKEQADFPRSALLDQQQLCLVWRADRVCRYRSLPAEEATALRGMIEQRWNFAELCVGLAVTYAEGAPLQAVTWLKQWVEDGLVMRSESEGHHHHHH	not soluble
MQRYFVEEKYVNETSIRIVGDDVHHIARVMRMSAGDHIYCCVNGKTAVCSIDEITSEFINTAIVEWVEASSELPVFVTIASGLPKGDKLELIFQKGTELGAAAFLPFQASRSIVKWDAKKADKKVERLRKIVKEAAEQSHRSEIPEVHAPASFKQLLSMSGEYDTCLVAYEEEAKQGEKSNFAKALTTMKPGQKLLIVFGPEGGLAEEEITALREHKFVPCSLGPKNFKNRNGAVIRVKCCFVSF	not soluble
MNQPLAGYAPAPAGARMENHGNHMLKVAMQTGNDLLARVGSMTAYEGFVQYEPNPPAVRQIAKDWMTGEGAPLMKCSGDGLLYLADYGANVVVINLNGDGISVNATNLLAFDAHLTWGVERVKGLAKFAGQGLWNTKISGQGWVALTSRGKPIVVDCGGGEDETYVDPDALVAWSPNLKVKGKRSFKAQSLIGRGSGEAFQMAFSGQGIVVVQPSEDSTDRLRVRGLEHHHHHH	not soluble
MVSIELRDIIKRFGEFELKVSLSVKDGELLTLLGPSGCGKTTTLRIIAGLEKPDKGRVYFDGRDITDLPPYERNIGLVFQDYALFPHMTVFKNVAFGLEVRRVPRMEIEKRVREVLDLVGLRGFENRLPEELSGGQQQRVALARALVIEPDVLLLDEPLSNLDAKVREKLRGEIKRIVKELGITTIYVTHDQEEAMVLSDRIAVMNFGRIEQVGEPYDLYYNPKNEFVANFLGISNIVELEAKEGRACLGDLCFEVGREGKGKIFFRPENVAVGEGIEAEVIGYELLPGRVRLRLSIEGREIIAEELLSRIGKKIPKKVRIRVREFKILP	soluble
MSLDLEFHGVMRFYFQDKAAGNFATKCIRVSSTATTQDVIETLAEKFRPDMRMLSSPKYSLYEVHVSGERRLDIDEKPLVVQLNWNKDDREGRFVLKNENDAIPPKAQSNGPEKQEKEGVIQNFKRTLSKKEKKEKKKREKEALRQASDKDDRPFQGEDVENSRLAAEVYKDMPETSFTRTISNPEVVMKRRRQQKLEKRMQEFRSSDGRPDSGGTLRIYADSLKPNIPYKTILLSTTDPADFAVAEALEKYGLEKENPKDYCIARVMLPPGAQHSDEKGAKEIILDDDECPLQIFREWPSDKGILVFQLKRRPPDHIPKKTKKHLEGKTPKGKERADGSGYGSTLPPEKLPYLVELSPGRRNHFAYYNYHTYEDGSDSRDKPKLYRLQLSVTEVGTEKLDDNSIQLFGPGIQPHHCDLTNMDGVVTVTPRSMDAETYVEGQRISETTMLQSGMKVQFGASHVFKFVDPSQDHALAKRSVDGGLMVKGPRHKPGIVQETTFDLGGDIHSGTALPTSKSTTRLDSDRVSSASSTAERGMVKPMIRVEQQPDYRRQESRTQDASGPELILPASIEFRESSEDSFLSAIINYTNSSTVHFKLSPTYVLYMACRYVLSNQYRPDISPTERTHKVIAVVNKMVSMMEGVIQKQKNIAGALAFWMANASELLNFIKQDRDLSRITLDAQDVLAHLVQMAFKYLVHCLQSELNNYMPAFLDDPEENSLQRPKIDDVLHTLTGAMSLLRRCRVNAALTIQLFSQLFHFINMWLFNRLVTDPDSGLCSHYWGAIIRQQLGHIEAWAEKQGLELAADCHLSRIVQATTLLTMDKYAPDDIPNINSTCFKLNSLQLQALLQNYHCAPDEPFIPTDLIENVVTVAENTADELARSDGREVQLEEDPDLQLPFLLPEDGYSCDVVRNIPNGLQEFLDPLCQRGFCRLIPHTRSPGTWTIYFEGADYESHLLREGHHHHHH	soluble
MSLAQEDLLAKGEYLTRAANCVACHTVPGGQPFAGGVEFKLPFGSLFSPNITPDPQTGIGAWTDDEFVSALQTGIGRDGKHYYPAFPYTSYSKMSRDDILAIKGYLDSLQPVEQAPRENHIGFPFNQRWGMVFWNLLFLNDEPFQADSQRSAEWNRGKYLVEGPGHCGECHSPRNLFQAVSSERSLAGNLIQGWNAYNISADPVHGIGAWPTDVLAGYLKDGAAPGLGLSSGPMAEVVENSLRHLTDADRQAIAVFLKDSPPRSEGVPRPQQVTLAEPGSGSALGNKLFAEACASCHRWDGTGNQSQTAMLLGLKTVNDPAASNLLGILLSGHGAADAPVNRRMPSFGNIYTDQELAALSSFMLQRFGESGAQVSVPAVAKRRTESLHEGHHHHHH	not soluble
MGSDKIHHHHHHMRTRYVDIDDRMEDLADRLRGDPEIVQDFLARYELSWLYHENALEGVVYSSQELATALANAPLADVTFVSALQEIRNHKVALDLVREEAAAKKPKLNLTTVKKLYETLGHGIEGRSVAEYRKDMPLHRAYFHDIAQPPKIQPALQKLLEATEGADFRNAHPIQQACKLHHGFMQVFPFTENSGRVARLLANLVLLHAGYKLPVIVHATDRQRYYESLRLPDTILRDLTMEALDNALTQAEKYFAEAPRARKAAR	not soluble
MISAQSLTRPQLRRQLRKARRVLTRSQQRAAARGLYQQLAQHPLFRRARHVSLYLPMDGEIDPRLLLREAQRRGKATYLPVLNAWPRTRMVFQRVRPGEKFIPNRFRIPEPRINRTKQRPVWALDLVLMPLVGFDDEGGRLGMGGGFYDRSLAYLARRKTWRKPALLGLAHECQKVDRLAQAIWDVPLQGTVSDKQWYLTQRLLEHHHHHH	not soluble
MGLIKAATSSVGGGLADQWLEVIEPDNMGDTTVMTKGVFVRKDDKRGSNRKGTDDVLTDGSVVHVYPNMMMLLVDGGKIIDYTAEEGYYTVKNDSAPSMFNGSLKDAIAETFSRFKFGGVTPQKQQVFYINLQEIKGIKFGTPAPLNYFDNFYNAELFLRAHGNYSIKITDPLLFYTNAIPKNQTQVDINDINEQYLAEFITALQAAINQMSADGQRISYVPSKSVELSKYMQTALDEDWRTNRGMEIVSVAVASISYTDDSTKLINMRNEGAMLSDPGVREGYVQGSLARGMEAAGKNEGGAMSGFMGVGMGMNANGNYFAQASQTNQQQMQEKQNQQNAQGATDTWTCPQCGTENTGKFCSNCGTPKPTNEKPKLEMKCSECSEIVDLSNGIPKFCPHCGKPFQGVPLLEHHHHHH	soluble
MGSDKIHHHHHHMENIESSFIDLPNPRKDIEDLQPYSAPLEGRRNLLRLDFNENTIGPSPLVIKSLREISRDEISAYPEYSGLKEKVVESLIKKNSNVNINSSEVGIFNGVDAAINAIFHAYGNFDDLMLTTLPTFGYYTPCAQMRGMQIKAIPYEGEGFQYPFDSICEFLTQNNPKILLICNPNNPTGTRLSPERIIEISKLSSKTLVVVDELYEAFTGDSVLPFLNFQTTPNLVVLRSLSKTAGLASLRIGFAIGHSKVINIVNRVTGPYDVNSFAVIAAFAALNDQSYIDSYVQEVLEARNWIKDQFEKHHVKHHIDGGNYFLLWPKSKPQLVEQKLKSSGILIRNMDKKKNLKGSIRVSIGTIDQMKRFWSAFRIVDEV	not soluble
MAHHHHHHMRGKGHKRLAARSFQQWQKLHYNALCDRQMPTPLHATLRLPVRRVAHQPSSCPSAPASVDMQLTTNSSAVLQWWQREYDPFLLGCDASAHRTAGPTPPATTATHVLASTRVSAHVGPPAPPLGYPDYIAIEATQHTEGVLRGETYAYHHAAAVGAVPAPPPGAAYPSPVKWIQQPLLDGFVAQRLTAHIGVTTGSLLDTRRTAMALGRQLPPVELSPFYAASALLDRWCLFGEAAAVVPSMPASSGATLDGTQQSQRPHDAAAHHLRIAELALGAGLLSNYRAVWLNGAVLSHPGTARSVLVVGPRRSGKTTLALHCLSAAAMQASSSASGDGGVRLTAAEHFFLAAGMPVRRMLDPASTRLTSPTIFACSLPHHITVGLGAVLGTLRPNPGLAAAVELPSFLQCEAGLRACLRNTDGVLWDMSKTYRVRLEDIYRASSPDISTQWAPVVVNTLAGVVLLDWNVEELASASPTPVRNAVREIPLHDGGVEELLKRAQDYMFHGHHLLRTVYDAPQDAPARLADALADEWDTAQPRSLANGTAPALHCIEGSVNFDLATQLIMSLLSERA	not soluble
MGSDKIHHHHHHMKVIKFGGSSLASGIQLNKVFQLVAEDSERKIVVVSAPGKRFKDDTKVTDLLIDCAAKALLGEDTSELFEAVIARYAGIALDTGMDDAIITQIRADLQKTISSDKSDPDKFLDRMKASGEDNNAKLIAAYFKFKGLNANYVNPKDAGLFVTDEHASAQVLPESYDRLFALREREGIIVFPGFFGYTKDGEISTFSRSGSDITGAIVANGAQAELYENFTDVDAVYAVNPAIVKNPKKVLELTYREMRELSYAGFSVFHDEALIPAFHAGIPVHIKNTNNPDSCGTRVVHERENNNGPVVGIASDDGFCSIYISKYLMNREIGFGRKVLQILEDAGLNYEHMPSGIDDLTIIIRENQFGEDTERTIMTRLKEELNADQVIMQHGISLIMVVGEAMRHNVGITSRASKALSDAKVNIEMINQGSSEVSIMFGVKEEQENTAVRALYNEFFSEVLV	not soluble
MSLSVAIRVKDLTKKYKLYQKRSERLANAFGKEKNIKEFYALKGVSFEISKGECVGIIGHNGAGKSTLLKLLTGVAFPTSGEIEINGRLASMLELGSGFNPELTGMENIYFNGSLNGLTKEEIDGKLKDILEFADIGNFIEQPVKNYSSGMFARLAFAVAINVDPDILIVDEILSVGDVGFQVKCMEKFNEFKKKGKTILYVSHGLGTVKKFCDRAIWLQKGEVVDDGNSVIVVERYYNLNFNPANIEQLKDHKSDIINSIAVKSNTKNVEYLEKLDLEVEYDLISNDLKDPNIVLEFRKTDYEPGTTRGNDQFVCGINSKDNIKNIPFNLGVNKLKVSLNKVNLVAGVYYIDFVLRDGEEEVYRKINGYSFTLNEGHHHHHH	soluble
